From US20160024487 come the findings set out here.

Sequences and labels used below:
B1: FX [191-194]>[NATLMPR]-HPC4 (protein)
chain: ANSFLEEMKKGHLERECMEETCSYEEAREVFEDSDKTNEFWNKYKDGDQCETSPCQNQGKCKDGLGEYTCTCLEGFEGKNCELFTRKLCSLDNGDCDQFCHEEQNSVVCSCARGYTLADNGKACIPTGPYPCGKQTLERRKRSVAQATSSSGEAPDSITWKPYDAADLDPTENPFDLLDFNQTQPERGDNNATLMPRIVGGQECKDGECPWQALLINEENEGFCGGTILSEFYILTAAHCLYQAKRFKVRVGDRNTEQEEGGEAVHEVEVVIKHNRFTKETYDFDIAVLRLKTPITFRMNVAPACLPERDWAESTLMTQKTGIVSGFGRTHEKGRQSTRLKMLEVPYVDRNSCKLSSSFIITQNMFCAGYDTKQEDACQGDSGGPHVTRFKDTYFVTGIVSWGEGCARKGKYGIYTKVTAFLKWIDRSMKTRGLPKAKSHAPEVITSSPLKDQVDPRLIDGK
B2: FX [191-194]>[NATIKPR]-HPC4 (protein)
chain: ANSFLEEMKKGHLERECMEETCSYEEAREVFEDSDKTNEFWNKYKDGDQCETSPCQNQGKCKDGLGEYTCTCLEGFEGKNCELFTRKLCSLDNGDCDQFCHEEQNSVVCSCARGYTLADNGKACIPTGPYPCGKQTLERRKRSVAQATSSSGEAPDSITWKPYDAADLDPTENPFDLLDFNQTQPERGDNNATIKPRIVGGQECKDGECPWQALLINEENEGFCGGTILSEFYILTAAHCLYQAKRFKVRVGDRNTEQEEGGEAVHEVEVVIKHNRFTKETYDFDIAVLRLKTPITFRMNVAPACLPERDWAESTLMTQKTGIVSGFGRTHEKGRQSTRLKMLEVPYVDRNSCKLSSSFIITQNMFCAGYDTKQEDACQGDSGGPHVTRFKDTYFVTGIVSWGEGCARKGKYGIYTKVTAFLKWIDRSMKTRGLPKAKSHAPEVITSSPLKDQVDPRLIDGK
B3: FX [191-194]>[NATIRPR]-HPC4 (protein)
chain: ANSFLEEMKKGHLERECMEETCSYEEAREVFEDSDKTNEFWNKYKDGDQCETSPCQNQGKCKDGLGEYTCTCLEGFEGKNCELFTRKLCSLDNGDCDQFCHEEQNSVVCSCARGYTLADNGKACIPTGPYPCGKQTLERRKRSVAQATSSSGEAPDSITWKPYDAADLDPTENPFDLLDFNQTQPERGDNNATIRPRIVGGQECKDGECPWQALLINEENEGFCGGTILSEFYILTAAHCLYQAKRFKVRVGDRNTEQEEGGEAVHEVEVVIKHNRFTKETYDFDIAVLRLKTPITFRMNVAPACLPERDWAESTLMTQKTGIVSGFGRTHEKGRQSTRLKMLEVPYVDRNSCKLSSSFIITQNMFCAGYDTKQEDACQGDSGGPHVTRFKDTYFVTGIVSWGEGCARKGKYGIYTKVTAFLKWIDRSMKTRGLPKAKSHAPEVITSSPLKDQVDPRLIDGK
B4: FX [191-194]>[NATDTPR]-HPC4 (protein)
chain: ANSFLEEMKKGHLERECMEETCSYEEAREVFEDSDKTNEFWNKYKDGDQCETSPCQNQGKCKDGLGEYTCTCLEGFEGKNCELFTRKLCSLDNGDCDQFCHEEQNSVVCSCARGYTLADNGKACIPTGPYPCGKQTLERRKRSVAQATSSSGEAPDSITWKPYDAADLDPTENPFDLLDFNQTQPERGDNNATDTPRIVGGQECKDGECPWQALLINEENEGFCGGTILSEFYILTAAHCLYQAKRFKVRVGDRNTEQEEGGEAVHEVEVVIKHNRFTKETYDFDIAVLRLKTPITFRMNVAPACLPERDWAESTLMTQKTGIVSGFGRTHEKGRQSTRLKMLEVPYVDRNSCKLSSSFIITQNMFCAGYDTKQEDACQGDSGGPHVTRFKDTYFVTGIVSWGEGCARKGKYGIYTKVTAFLKWIDRSMKTRGLPKAKSHAPEVITSSPLKDQVDPRLIDGK
B5: FX [191-194]>[NATLEPR]-HPC4 (protein)
chain: ANSFLEEMKKGHLERECMEETCSYEEAREVFEDSDKTNEFWNKYKDGDQCETSPCQNQGKCKDGLGEYTCTCLEGFEGKNCELFTRKLCSLDNGDCDQFCHEEQNSVVCSCARGYTLADNGKACIPTGPYPCGKQTLERRKRSVAQATSSSGEAPDSITWKPYDAADLDPTENPFDLLDFNQTQPERGDNNATLEPRIVGGQECKDGECPWQALLINEENEGFCGGTILSEFYILTAAHCLYQAKRFKVRVGDRNTEQEEGGEAVHEVEVVIKHNRFTKETYDFDIAVLRLKTPITFRMNVAPACLPERDWAESTLMTQKTGIVSGFGRTHEKGRQSTRLKMLEVPYVDRNSCKLSSSFIITQNMFCAGYDTKQEDACQGDSGGPHVTRFKDTYFVTGIVSWGEGCARKGKYGIYTKVTAFLKWIDRSMKTRGLPKAKSHAPEVITSSPLKDQVDPRLIDGK
B6: FX [191-194]>[NATMMPR]-HPC4 (protein)
chain: ANSFLEEMKKGHLERECMEETCSYEEAREVFEDSDKTNEFWNKYKDGDQCETSPCQNQGKCKDGLGEYTCTCLEGFEGKNCELFTRKLCSLDNGDCDQFCHEEQNSVVCSCARGYTLADNGKACIPTGPYPCGKQTLERRKRSVAQATSSSGEAPDSITWKPYDAADLDPTENPFDLLDFNQTQPERGDNNATMMPRIVGGQECKDGECPWQALLINEENEGFCGGTILSEFYILTAAHCLYQAKRFKVRVGDRNTEQEEGGEAVHEVEVVIKHNRFTKETYDFDIAVLRLKTPITFRMNVAPACLPERDWAESTLMTQKTGIVSGFGRTHEKGRQSTRLKMLEVPYVDRNSCKLSSSFIITQNMFCAGYDTKQEDACQGDSGGPHVTRFKDTYFVTGIVSWGEGCARKGKYGIYTKVTAFLKWIDRSMKTRGLPKAKSHAPEVITSSPLKDQVDPRLIDGK
B7: FX [191-194]>[NATLRPR]-HPC4 (protein)
chain: ANSFLEEMKKGHLERECMEETCSYEEAREVFEDSDKTNEFWNKYKDGDQCETSPCQNQGKCKDGLGEYTCTCLEGFEGKNCELFTRKLCSLDNGDCDQFCHEEQNSVVCSCARGYTLADNGKACIPTGPYPCGKQTLERRKRSVAQATSSSGEAPDSITWKPYDAADLDPTENPFDLLDFNQTQPERGDNNATLRPRIVGGQECKDGECPWQALLINEENEGFCGGTILSEFYILTAAHCLYQAKRFKVRVGDRNTEQEEGGEAVHEVEVVIKHNRFTKETYDFDIAVLRLKTPITFRMNVAPACLPERDWAESTLMTQKTGIVSGFGRTHEKGRQSTRLKMLEVPYVDRNSCKLSSSFIITQNMFCAGYDTKQEDACQGDSGGPHVTRFKDTYFVTGIVSWGEGCARKGKYGIYTKVTAFLKWIDRSMKTRGLPKAKSHAPEVITSSPLKDQVDPRLIDGK

For the data set, the target named is human α-thrombin (FIIa), P00734.
Take B1: the kcat/KM result is given as “No Activity”.

Take B2: the kcat/KM entry was “No Activity”.

As for B3, the kcat/KM result is listed as “No Activity”.

As for B4, the kcat/KM entry is given as “No Activity”.

On to B5, for which the kcat/KM entry is “No Activity”.

With B6, the kcat/KM entry is on record as “No Activity”.

With B7, the kcat/KM result is recorded as “No Activity”.
